How the values were obtained:
[1] = molecular target: the molecule itself; experiment: crystal structure; unliganded SeMet TakP, space group P2(1), four molecules in the asymmetric unit; hanging drop, 293 K, 100 mM sodium citrate pH 5.8-6.0, 1.4-1.6 M ammonium sulfate; solved by MAD
[2] = molecular target: the molecule itself; experiment: SEC; gel filtration on Superdex 200 26/60 in 20 mM Tris HCl pH 8.0, 50 mM NaCl, calibrated with commercial standards
[3] = molecular target: the molecule itself; experiment: cross-linking; 3.2 and 6.3 μM TakP with 50 mM glutaraldehyde, 20 mM Na2HPO4/KH2PO4 pH 7.8, 18°C, 3 hours; denaturing 10% Nu-PAGE gel; dimer to monomers

| Protein | binding result [1] | stoichiometry N [2] | Kd [3] [nM] |
| --- | --- | --- | --- |
| Selenomethionine-labeled TakP from Rhodobacter sphaeroides (natural protein, Rhodobacter sphaeroides 2.4.1, selenomethionine (SeMet) labeled, TakP (previously named SmoM), Rhodobacter sphaeroides 2.4.1; same construct as m1 (pET101/D-TOPO, 1099 bp fragment), labeled with selenomethionine; final model holds four molecules from residue 28 or 32 to 365; Same construct as m1, with methionines replaced by selenomethionine; used for the unliganded MAD structure (PDB 2HZK); also called SeMet TakP; selenomethionine labeled protein; source: E. …) QSAPKVTWRLASSFPKSLDTIFGGAEVLSKMLSEATDGNFQIQVFSAGELVPGLQAADAVTEGTVECCHTVGYYYWGKDPTFALAAAVPFSLSARGINAWHYHGGGIDLYNEFLSQHNIVAFPGGNTGVQMGGWFRREINTVADMQGLKMRVGGFAGKVMERLGVVPQQIAGGDIYPALEKGTIDATEWVGPYDDEKLGFFKVAPYYYYPGWWEGGPTVHFMFNKSAYEGLTPTYQSLLRTACHAADANMLQLYDWKNPTAIKSLVAQGTQLRPFSPEILQACFEAANEVYAEMEASNPAFKKIWDSIKAFRSEHYTWAQIAEYNYDTFMMVQQNAGKL | binds |  |  |
| TakP (TRAP transporter alpha-keto acid binding P subunit) from Rhodobacter sphaeroides (natural protein, Rhodobacter sphaeroides 2.4.1, TakP (previously named SmoM), extracytoplasmic solute receptor (P subunit) of a TRAP transporter, Rhodobacter sphaeroides 2.4.1; gene amplified from genomic DNA as a 1099 bp fragment and cloned into pET101/D-TOPO; crystal models span residues 28 or 32 to 365; The 1099 bp fragment would fit the whole gene of 365 codons, so the signal peptide may be in the construct; The theoretical molecular …) QSAPKVTWRLASSFPKSLDTIFGGAEVLSKMLSEATDGNFQIQVFSAGELVPGLQAADAVTEGTVECCHTVGYYYWGKDPTFALAAAVPFSLSARGINAWHYHGGGIDLYNEFLSQHNIVAFPGGNTGVQMGGWFRREINTVADMQGLKMRVGGFAGKVMERLGVVPQQIAGGDIYPALEKGTIDATEWVGPYDDEKLGFFKVAPYYYYPGWWEGGPTVHFMFNKSAYEGLTPTYQSLLRTACHAADANMLQLYDWKNPTAIKSLVAQGTQLRPFSPEILQACFEAANEVYAEMEASNPAFKKIWDSIKAFRSEHYTWAQIAEYNYDTFMMVQQNAGKL |  | 2 | < 300 |

Reference: publication PMC1839085, “Crystal structures of an Extracytoplasmic Solute Receptor from a TRAP transporter in its open and closed forms reveal a helix-swapped dimer requiring a cation for α-keto acid binding” (BMC Structural Biology, 2007)
